Laboratory results taken from IntAct's records for PubMed 20473270.

B1: Zinc finger HIT domain-containing protein 1 (Homo sapiens), O43257 (parent)
chain: MVEKKTSVRSQDPGQRRVLDRAARQRRINRQLEALENDNFQDDPHAGLPQLGKRLPQFDDDADTGKKKKKTRGDHFKLRFRKNFQALLEEQNLSVAEGPNYLTACAGPPSRPQRPFCAVCGFPSPYTCVSCGARYCTVRCLGTHQETRCLKWTV

Variants of: B1
Details: with arp6_human ACTR6, Q9GZN1
Sequence of arp6_human ACTR6, Q9GZN1 (Q9GZN1 whole entry): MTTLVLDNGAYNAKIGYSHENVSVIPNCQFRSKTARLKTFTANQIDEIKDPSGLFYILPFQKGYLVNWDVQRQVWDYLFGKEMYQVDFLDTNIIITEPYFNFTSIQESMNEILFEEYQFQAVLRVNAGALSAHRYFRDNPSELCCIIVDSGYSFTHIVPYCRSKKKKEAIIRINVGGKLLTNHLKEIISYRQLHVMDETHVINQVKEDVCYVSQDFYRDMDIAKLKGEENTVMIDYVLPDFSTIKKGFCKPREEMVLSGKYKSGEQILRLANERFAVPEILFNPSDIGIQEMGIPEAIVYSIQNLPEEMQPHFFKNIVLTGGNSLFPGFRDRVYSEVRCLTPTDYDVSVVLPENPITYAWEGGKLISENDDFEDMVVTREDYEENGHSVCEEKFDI

| Variant | effect of a mutation on the interaction |
| --- | --- |
| MVEKKTSVRSQDPGQRRVLDRAARQRRINRQLEALENDNFQDDPHAGLPQLGKRLPQFDDDADTGKKKKKTRGDHFKLRFRKNFQALLEEQNLSVAEGPNYLAACAGPPSRPQRPFCAVCGFPSPYTCVSCGARYCTVRCLGTHQETRCLKWTV [T103A] | disrupting interaction |
| MVEKKASVRSQDPGQRRVLDRAARQRRINRQLEALENDNFQDDPHAGLPQLGKRLPQFDDDADTGKKKKKTRGDHFKLRFRKNFQALLEEQNLSVAEGPNYLTACAGPPSRPQRPFCAVCGFPSPYTCVSCGARYCTVRCLGTHQETRCLKWTV [T6A] | disrupting interaction |
| MVEKKTSVRSQDPGQRRVLDRAARQRRINRQLEALENDNFQDDPHAGLPQLGKRLPQFDDDADAGKKKKKTRGDHFKLRFRKNFQALLEEQNLSVAEGPNYLTACAGPPSRPQRPFCAVCGFPSPYTCVSCGARYCTVRCLGTHQETRCLKWTV [T64A] | disrupting interaction |
| MVEKKTSVRSQDPGQRRVLDRAARQRRINRQLEALENDNFQDDPHAGLPQLGKRLPQFDDDADTGKKKKKARGDHFKLRFRKNFQALLEEQNLSVAEGPNYLTACAGPPSRPQRPFCAVCGFPSPYTCVSCGARYCTVRCLGTHQETRCLKWTV [T71A] | disrupting interaction |
